# Data taken from patent publication US20210115151A1 (TOHOKU UNIVERSITY, published 2021).
# T1: human podoplanin on cancer cells (glioblastoma LN319, lung cancer PC-10) (human, UniProt Q86YL7 23-162, sialylated O-glycan on Thr85 (as the filing concludes for podoplanin on cancer cells))
# T1 construct: Endogenous podoplanin on cancer cell lines LN319 and PC-10; also called hPDPN; cancer-type podoplanin
# T1 chain: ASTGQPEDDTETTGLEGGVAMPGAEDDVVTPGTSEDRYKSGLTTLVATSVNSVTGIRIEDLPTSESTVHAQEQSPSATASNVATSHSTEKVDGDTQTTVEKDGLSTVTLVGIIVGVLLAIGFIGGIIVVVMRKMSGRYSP
# T2: human podoplanin I78A (human, UniProt Q86YL7 23-162)
# T2 construct: Alanine point mutant tested by flow cytometry
# T2 chain: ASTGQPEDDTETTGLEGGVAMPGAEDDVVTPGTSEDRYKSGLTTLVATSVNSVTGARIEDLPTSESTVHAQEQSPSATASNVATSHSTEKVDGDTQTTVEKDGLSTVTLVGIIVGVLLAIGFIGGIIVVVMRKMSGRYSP
# T3: human podoplanin I80A (human, UniProt Q86YL7 23-162)
# T3 construct: Alanine point mutant tested by flow cytometry
# T3 chain: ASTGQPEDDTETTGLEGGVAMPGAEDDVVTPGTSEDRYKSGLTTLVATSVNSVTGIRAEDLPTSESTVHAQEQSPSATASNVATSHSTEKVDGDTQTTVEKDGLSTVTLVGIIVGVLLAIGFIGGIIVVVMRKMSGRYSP
# T4: human podoplanin T85A (human, UniProt Q86YL7 23-162)
# T4 chain: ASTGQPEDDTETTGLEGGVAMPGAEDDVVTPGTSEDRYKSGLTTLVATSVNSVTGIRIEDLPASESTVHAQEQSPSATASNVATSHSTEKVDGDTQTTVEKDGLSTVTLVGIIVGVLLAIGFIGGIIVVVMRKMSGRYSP
# T5: human podoplanin E81A (human, UniProt Q86YL7 23-162)
# T5 construct: Alanine point mutant tested by flow cytometry
# T5 chain: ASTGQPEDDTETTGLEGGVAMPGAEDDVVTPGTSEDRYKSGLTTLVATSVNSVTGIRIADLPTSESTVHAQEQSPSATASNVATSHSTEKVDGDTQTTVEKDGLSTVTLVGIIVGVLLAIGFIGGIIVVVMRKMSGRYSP
# T6: human podoplanin D82A (human, UniProt Q86YL7 23-162)
# T6 construct: Alanine point mutant tested by flow cytometry
# T6 chain: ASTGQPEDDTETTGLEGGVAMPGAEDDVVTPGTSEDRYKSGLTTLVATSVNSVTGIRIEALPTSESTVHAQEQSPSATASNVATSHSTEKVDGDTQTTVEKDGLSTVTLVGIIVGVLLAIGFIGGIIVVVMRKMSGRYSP
# Tests used:
# [1] = molecular target: T1, human podoplanin on cancer cells …; test: flow cytometry, ExpiCHO culture supernatant on LN319 cells
# Method: Plasmids of the H chain and the L chain of chPMab117-mG2a were introduced into ExpiCHO cell lines (product of Thermo Fisher) by lipofection and a recombinant antibody of chPMab117-mG2a was expressed in the culture supernatant. The culture supernatant was collected two days after gene introduction. It was reacted with LN 319 cells at 4° C. for 30 minutes and was then reacted further with an anti-mouse IgG-FITC antibody (product of Thermo Fisher) at 4° C. for 30 minutes. As a negative control, only a secondary antibody was used.
# human podoplanin I78A = molecular target: T2, human podoplanin I78A; test: flow cytometry, alanine scan 77-89
# human podoplanin I80A = molecular target: T3, human podoplanin I80A; test: flow cytometry, alanine scan 77-89
# human podoplanin T85A = molecular target: T4, human podoplanin T85A; test: flow cytometry, alanine scan 77-89
# human podoplanin E81A = molecular target: T5, human podoplanin E81A; test: flow cytometry, alanine scan 77-89
# human podoplanin D82A = molecular target: T6, human podoplanin D82A; test: flow cytometry, alanine scan 77-89
Binder,binding result [1],binding result (human podoplanin I78A),binding result (human podoplanin I80A),binding result (human podoplanin T85A),binding result (human podoplanin E81A),binding result (human podoplanin D82A)
"mouse chimeric PMab-117 (chPMab117-mG2a) (antibody, mouse IgG2a, kappa, tested as ExpiCHO culture supernatant; no limits stated) heavy: AVQLVESGGGLVQPKESLKISCAASGFTFSNAAMYWVRQAPGKGLEWVARIRSKPNNYATYYTDSVKGRFTISRDDSKSMVHLQMDNLKTEDTAMYYCTVGGNNYAAAYWGQGTLVTVSSAKTTAPSVYPLAPVCGDTTGSSVTLGCLVKGYFPEPVTLTWNSGSLSSGVHTFPAVLQSDLYTLSSSVTVTSSTWPSQSITCNVAHPASSTKVDKKIEPRGPTIKPCPPCKCPAPNLLGGPSVFIFPPKIKDVLMISLSPIVTCVVVDVSEDDPDVQISWFVNNVEVHTAQTQTHREDYNSTLRVVSALPIQHQDWMSGKEFKCKVNNKDLPAPIERTISKPKGSVRAPQVYVLPPPEEEMTKKQVTLTCMVTDFMPEDIYVEWTNNGKTELNYKNTEPVLDSDGSYFMYSKLRVEKKNWVERNSYSCSVVHEGLHNHHTTKSFSRTPGK light: DVVLTQTPVAQPVTLGDQASISCRSSQSLVHSNGNTYLEWYLQKPGQSPQLLIYKVSNRFSGVPDRFIGSGSGSDFTLKISRVEPEDLGVYYCFQVTHDPFTFGSGTKLEIKRADAAPTVSIFPPSTEQLATGGASVVCLMNNFYPRDISVKWKIDGTERRDGVLDSVTDQDSKDSTYSMSSTLSLTKADYESHNLYTCEVVHKTSSSPVVKSFNRNEC",binds,–,–,–,–,–
"human chimeric PMab-117 (chPMab-117) (antibody, human IgG1) heavy: not shown light: DVVLTQTPVAQPVTLGDQASISCRSSQSLVHSNGNTYLEWYLQKPGQSPQLLIYKVSNRFSGVPDRFIGSGSGSDFTLKISRVEPEDLGVYYCFQVTHDPFTFGSGTKLEIKRGSAAPSVFIFPPSDEQLKSGTASVVCLLNNFYPREAKVQWKVDNALQSGNSQESVTEQDSKDSTYSLSSTLTLSKADYEKHKVYACEVTHQGLSSPVTKSFNRGEC",–,no binding (tested: 10 µg/mL),no binding (tested: 10 µg/mL),no binding (tested: 10 µg/mL),no binding (tested: 10 µg/mL),no binding (tested: 10 µg/mL)
